The source of these data is patent US10752675B2, “Compounds for treating the remyelination blockade in diseases associated with the expression of HERV-W envelope protein” (GENEURO S.A., priority 2012, dated 2020).

For test [1], the system named is human OPC. In words: Expression of CNPase in human OPC in primary culture stimulated by MSRV-Env, with or without GNbAC1 (immunocytochemistry). It counts as cell-based. To be noted: for CNPase positive cells, normalized to control condition (buffer = 100%): pooled data. The procedure:
Full length recombinant MSRV-Env was produced and purified by PX′Therapeutics (548 aa; 61.44 KDa) (batch 110719-1). The initial concentration was 0.6 mg/ml (9.76 μM). MSRV-Env Buffer (20 mM Trizma-HCl, pH 7.5, 150 mM NaCl, 1.5% SDS, 10 mM DTT) was provided by PX′Therapeutics. This solution was used as a negative control. GNbAC1 (Batch T96/bAC1/B1; GMP production) was produced and purified by Polymun Scientific, Vienna, Austria. The initial concentration was 10 mg/ml (68.03 μM).
Human OPC were stimulated with the different treatments either by coating solutions on the cell culture plate surface before cells seeding or by adding them in the cell culture medium after cells seeding. In any case, labtek 8-wells chamber slides (Nunc) were previously coated with poly-L-lysine (Sigma-Aldrich) overnight at 37° C.
The different treatments were diluted in PBS under a sterile laminar flow hood (Fischer Bioblock, France) and the Labtek 8 wells chambers slides (Nunc; 250 μl per well) were coated as follows: • MSRV-Env (1 μg/ml) coated for 2 hours at 37° C. • MSRV-Env Buffer (same dilution than MSRV-Env) coated for 2 hours at 37° C. • MSRV-Env+GNbAC1 A1: MSRV-Env (1 μg/ml) and GNbAC1 (7.35 μg/ml=50 nM) mixture coated for 2 hours at 37° C. • MSRV-Env+GNbAC1 A2: MSRV-Env (1 μg/ml) and GNbAC1 (29.4 μg/ml=200 nM) mixture coated for 2 hours at 37° C. • MSRV-Env+GNbAC1 B1: MSRV-Env (1 μg/ml) coated for 2 hours at 37° C., washed with PBS and subsequently coated with GNbAC1 (7.35 μg/ml=50 nM) for 1 hour at 37° C. • MSRV-Env+GNbAC1 B2: MSRV-Env (1 μg/ml) coated for 2 hours at 37° C., washed with PBS and subsequently coated with GNbAC1 (29.4 μg/ml=200 nM) for 1 hour at 37° C. • GNbAC1 A1 alone: GNbAC1 (7.35 μg/ml=50 nM) coated for 2 hours at 37° C. • GNbAC1 A2 alone: GNbAC1 (29.4 μg/ml=200 nM) coated for 2 hours at 37° C. • GNbAC1 B1 alone: PBS for 2 hours at 37° C., then coated with GNbAC1 (7.35 μg/ml=50 nM) for 1 hour at 37° C. • GNbAC1 B2 alone: PBS for 2 hours at 37° C., then coated with GNbAC1 (29.4 μg/ml=200 nM) for 1 hour at 37° C. • BSA (1 μg/ml) coated for 2 hours at 37° C. • BSA+GNbAC1 A1: BSA (1 μg/ml) and GNbAC1 (7.35 μg/ml=50 nM) mixture coated for 2 hours at 37° C. • BSA+GNbAC1 A2: BSA (1 μg/ml) and GNbAC1 (29.4 μg/ml=200 nM) mixture coated for 2 hours at 37° C. • BSA+GNbAC1 B1: BSA (1 μg/ml) coated for 2 hours at 37° C., washed with PBS and subsequently coated with GNbAC1 (7.35 μg/ml=50 nM) for 1 hour at 37° C. • BSA+GNbAC1 B2: BSA (1 μg/ml) coated for 2 hours at 37° C., washed with PBS and subsequently coated with GNbAC1 (29.4 μg/ml=200 nM) for 1 hour at 37° C. Human Oligodendrocyte Precursor Cells Culture
The vial containing the human OPC was placed in a 37° C. water bath and gently agitated by rotation until the content was completely thawed. The cells were gently resuspended with a 1 ml Gilson pipette. Then, they were diluted in complete OPCM, and seeded into the 8-wells labtek culture vessels (7000 cells/cm^2=10000 cells per well) previously coated with poly-L-lysine (0.01%, Sigma) and with (or without) the treatments described above (see 3.2.1.1) under a sterile laminar flow hood (Fischer Bioblock, France). The cultures were incubated at 37° C.; 5% CO2 until subsequent immunocytochemistry experiments. The growth medium was changed the next day to remove the residual DMSO and unattached cells in the cultures treated for 72 hours.
After 3 hours of pre-cultivation (see 3.2.1.2) of the human OPC in the 8-well labtek culture vessels, the cells were incubated at 37° C. for 24 hours or 72 hours in 8-wells labteks (250 μl/well) with the addition of the following solutions: • MSRV-Env Buffer, used as a negative control, added in complete cell culture medium • MSRV-Env added at 3 nM (0.184 μg/ml) in complete cell culture medium • MSRV-Env (3 nM)+GNbAC1 (200 nM; 29.4 μg/ml) mixture added in complete cell culture medium • GNbAC1 (200 nM) alone added in complete cell culture medium Expression of TLR4 and Myelination Markers in OPC In Vitro […]

Test [2] deals with MSRV-Env induced EAE in C57BL/6 mice. In words: EAE clinical score, Example 3.C (GNbAC1 and Sodium Fumarate). Format: in vivo. The text has this:
Animals were weighed and clinically scored 5 days per week according to the following criteria: 0=no signs; 1=tail paralysis or hyper-reflex of hind limb(s) or unilateral hind limb weakness; 2=bilateral hind limb or forelimb weakness; 3=plus unilateral paralysis or major deficit; 4=complete hind limb or forelimb paralysis; 5=plus partial paralysis or major deficit of opposite limbs; 6=moribund or dead. These were adapted from standard criteria, in order to reflect the more rapid induction of brain and cervical cord lesions with this model.

Entries after “also recorded” stand apart in the source; their conditions may differ.

B1: GNbAC1: recombinant humanized anti-Env IgG4 monoclonal antibody comprising the CDRs of SEQ ID No. 1 to 6 (antibody, chains of the INN, looked up, V domains shown)
VH: QVQLVQSGAEVKKPGSSVKVSCKASGYTFTDYEMHWVRQAPGQGLEWIGAVAPETGGTAYNQKFKGRATITADKSTSTAYMELSSLRSEDTAVYYCTSTVVPFAYWGQGTLVTVSS
VL: QIQLTQSPSSLSASVGDRVTITCSASSSVSYMYWYQQKPGKAPKAWIYRTSNLASGVPSRFSGSGSGTDYTLTISSLQPEDFATYYCQQYQSLPLTFGGGTKVEIK
In the case of B1, the “effect on percentage of CNPase positive OPC without MSRV-Env” value in test [1] (GNbAC1 50 nM or 200 nM coated alone or with BSA 1 μg/ml, 24 hours) is “no effect”. In addition, the “effect on the decrease of CNPase positive cells induced by coated MSRV-Env” value in test [1] (GNbAC1 50 nM or 200 nM, protocols GNbAC1-A and GNbAC1-B, 24 hours) is reported as “significantly inhibits; also recorded: fully inhibits MSRV-Env effect”. The “percentage of CNPase positive cells” value came out at 74±2% in test [1] (GNbAC1 200 nM alone in culture medium, 24 hours); 69±4% in test [1] (GNbAC1-A 50 nM (mixture with MSRV-Env 1 μg/ml coated), 24 hours, OPC ICC 02); 80±2% in test [1] (GNbAC1-A 200 nM (mixture with MSRV-Env 1 μg/ml coated), 24 hours, OPC ICC 02); 90±2% in test [1] (GNbAC1-A 200 nM, coated MSRV-Env 1 μg/ml, 24 hours, OPC ICC 03); 96±3% in test [1] (GNbAC1-B 50 nM (coated after MSRV-Env 1 μg/ml), 24 hours, OPC ICC 02); 76±4% in test [1] (GNbAC1-B 200 nM (coated after MSRV-Env 1 μg/ml), 24 hours, OPC ICC 02). Besides, the “percentage of CNPase positive cells” value in test [1] (GNbAC1-B 200 nM, coated MSRV-Env 1 μg/ml, 24 hours, OPC ICC 03) stood at 91±4%; in test [1] (MSRV-Env 3 nM + GNbAC1 200 nM in culture medium, 24 hours), 76±2%. Further, in test [1] (GNbAC1 200 nM alone, 24 hours), the “effect on CNPase expression of GNbAC1 alone in culture medium” value is recorded as “no effect; also recorded: does not show any effect alone”. In test [1] (GNbAC1 200 nM, both protocols, 24 hours, OPC ICC 03), the “effect on the inhibition of CNPase expression induced by coated MSRV-Env” value was “completely reverses; also recorded: fully inhibits MSRV-Env effect”. Further, the “CNPase positive cells, normalized to control condition (buffer = 100%)” value in test [1] (GNbAC1-A 200 nM with coated MSRV-Env) is recorded as 102±1%; in test [1] (GNbAC1-B 200 nM with coated MSRV-Env), 101±1%. Also, the “effect on the decrease of CNPase expression induced by MSRV-Env in culture medium” value in test [1] (MSRV-Env 3 nM, GNbAC1 200 nM, 24 hours) was “fully antagonizes; also recorded: inhibits completely this effect”. Also, in test [2] (from day 12: GNbAC1 500 μg IP, Sodium Fumarate 10 mg daily in 3.5 ml drinking water, versus isotype control antibody), the “EAE clinical score kinetics and endpoint” value is “significant reversion of their clinical score curves; also recorded: equivalent and significantly good recovery at the end of the study”. The “day from which clinical improvement appeared” value in test [2] (treatment started day 12) amounted to 15 days.
